Reference: patent US6528487B1, “Peptide inhibitors of inflammation mediated by selectins” (Centocor, Inc., priority 1991, dated 2003)
No end group written: not given here. *: point of attachment. Fmoc = O=C(OCC1c2ccccc2-c2ccccc21)*

Target: T1, GMP-140 (Homo sapiens, UniProt P16109)
T1 construct: from tissue; host or cells: human platelets (outdated platelet packs from a blood bank)
T1 sequence (P16109 42-830): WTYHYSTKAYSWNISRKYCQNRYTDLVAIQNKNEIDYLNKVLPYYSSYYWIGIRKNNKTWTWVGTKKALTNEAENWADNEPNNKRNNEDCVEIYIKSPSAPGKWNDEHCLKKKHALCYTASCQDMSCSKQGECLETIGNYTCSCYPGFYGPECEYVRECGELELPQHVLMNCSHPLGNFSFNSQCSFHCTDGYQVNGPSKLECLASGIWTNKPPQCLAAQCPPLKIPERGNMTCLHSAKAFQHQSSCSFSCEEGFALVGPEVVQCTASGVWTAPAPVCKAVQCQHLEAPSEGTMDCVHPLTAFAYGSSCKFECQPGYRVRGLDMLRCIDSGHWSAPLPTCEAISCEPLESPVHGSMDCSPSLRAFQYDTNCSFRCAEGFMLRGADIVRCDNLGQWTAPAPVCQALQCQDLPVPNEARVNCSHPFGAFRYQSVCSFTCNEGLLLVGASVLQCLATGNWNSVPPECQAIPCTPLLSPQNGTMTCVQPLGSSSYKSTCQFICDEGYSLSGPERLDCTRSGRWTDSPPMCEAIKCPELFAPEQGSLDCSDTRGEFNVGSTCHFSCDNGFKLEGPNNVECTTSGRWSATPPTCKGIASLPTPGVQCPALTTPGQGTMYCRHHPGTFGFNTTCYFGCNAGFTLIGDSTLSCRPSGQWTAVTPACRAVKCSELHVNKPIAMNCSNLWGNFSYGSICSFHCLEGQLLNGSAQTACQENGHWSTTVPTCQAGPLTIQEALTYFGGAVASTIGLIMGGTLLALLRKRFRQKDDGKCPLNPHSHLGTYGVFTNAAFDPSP
Test: Inhibition of neutrophil binding to GMP-140 coated wells
Format: cell-based
Settings: human neutrophils, immobilized GMP-140
Description: Peptides can be screened for their ability to inhibit adhesion to cells, for example, neutrophil adhesion to purified GMP-140 immobilized on plastic wells, using the assay described by Geng, et al., Nature 343, 757-760 (1990).
Human neutrophils are isolated from heparinized whole blood by density gradient centrifugation on Mono-Poly resolving media, Flow laboratories. Neutrophil suspensions are greater than 98% pure and greater than 95% viable by trypan blue exclusion. For adhesion assays, neutrophils are suspended at a concentration of 2×10^6 cells/mL in Hanks' balanced salt solution containing 1.26 mM Ca^2+ and 0.81 mM Mg^2+ (HBSS, Gibco) with 5 mg/mL human serum albumin (HBSS/HSA). Adhesion assays are conducted in triplicate in 96-well microtiter plates, Corning, incubated at 4° C. overnight with 50 microliters of various protein solutions.
GMP-140 is isolated from human platelet lysates by immunoaffinity chromatography on antibody S12-Sepharose™ and ion-exchange chromatography on a Mono-Q™ column (FLPC, Pharmacia Fine Chemicals, as follows.
GMP-140 is plated at 5 micrograms/mL and the control proteins: human serum albumin (Alb), platelet glycoprotein Iib/IIIha (Iib), von Willebrand factor (vWF), fibrinogen (FIB), thrombomodulin™, gelatin (GEL) or human serum (HS), are added at 50 micrograms/mL. All wells are blocked for 2 h at 22° C. with 300 microliters HBSS containing 10 mg/mL HSA, then ashed three times with HBSS containing 0.1% Tween-20 and once with HBSS. Cells (2×10^5 per well are added to the wells and incubated at 22° C. for 20 min. The wells are then filled with HGSS/HSA, sealed with acetate tape (Dynatech), and centrifuged inverted at 150 g for 5 min. After discarding nonadherent cells and supemates, the contents of each well are solubilized with 200 microliters of 0.5% hexadecyltrimethylammonium bromide, Sigma, in 50 mM potassium phosphate, pH 6.0, and assayed for myeloperoxidase activity, Ley, et al., Blood 73, 1324-1330 (1989). The number of cells bound is derived from a standard curve of myeloperoxidase activity versus numbers of cells. Under all assay conditions, the cells release less than 5% of total myeloperoxidase and lactate dehydrogenase. Inhibition is read as a lower percent adhesion, so that a value of 5% means that 95% of the specific adhesion was inhibited.
Binding of various peptides to GMP-140 coated wells, as described above, were compared.
Binding of the peptides at various concentrations, ranging from 0.05 to 1 mM were compared.
A 5 μg/mL solution of GMP-140 in HBSS (buffer) is prepared. 50 μL is pipetted per well with the exception of three wells (A10 to A12) and the plate is stored overnight at 0° C. to 4° C. The liquids are removed by aspiration and 300 μL of 5 mg/mL human serum albumin (HSA)/HBSS is placed in the wells coated with GMP-140 plus the three non-coated wells to be used as control wells. The plate is allowed to incubate at room temperature for two hours. The HSA/HBSS solution is removed and the wells washed three times with 300 μL/well of HBSS. The third 300 μL wash of HBSS is left in each well and the plate is kept at room temperature until it is used.
Eight to ten mL of fresh human blood collected in heparinized tubes is carefully layered over 5 mL of the Mono-Poly Resolving Medium in 15 mL polypropylene centrifuge tubes. The tubes are centrifuged for 30 minutes at room temperature and 1400 to 1600 rpm. The tubes are rotated 180° and centrifuged for another 30 minutes under the same conditions. The top plasma layer and first cellular layer of leukocytes are drawn off. The second cellular layer of neutrophils is harvested (usually 2 to 3 mL per tube) and is placed in a clean 15 mL centrifuge tube. This is then underlayered with 1.5 mL of fresh resolving medium and spun at 2000 rpm for 15 minutes at room temperature. This is done to further purify the neutrophils from residual red blood cells. […]

[1] = peptide concentration 0.1 mM, read-out: Percent inhibition of neutrophil binding to GMP-140
[2] = peptide concentration 0.5 mM, read-out: Percent inhibition of neutrophil binding to GMP-140

Substance | Percent inhibition of neutrophil binding to GMP-140 (peptide concentration 0.1 mM) [%] | Percent inhibition of neutrophil binding to GMP-140 (peptide concentration 0.5 mM) [%] | Percent inhibition of neutrophil binding to GMP-140 (peptide concentration 1.0 mM) [%] | inhibition at 100 µM [1] [%] | inhibition at 500 µM [2] [%] | inhibition at 1000 µM (peptide concentration 1.0 mM, read-out: Percent inhibition of neutrophil binding to GMP-140) [%]
FMOC-Asn-Asn-Lys-Thr-Trp-NH2 (Fmoc-NNKTW-NH2; SMILES C[C@@H](O)[C@H](NC(=O)[C@H](CCCCN)NC(=O)[C@H](CC(N)=O)NC(=O)[C@H](CC(N)=O)NC(=O)OCC1c2ccccc2-c2ccccc21)C(=O)N[C@@H](Cc1c[nH]c2ccccc12)C(N)=O) | 85 | 100 | 99 | – | – | –
Arg-Lys-Val-Asn-Asn-Val-Trp-NH2 (RKVNNVW-NH2) | – | – | 17 | – | – | –
RKNNKTWT-NH2 | 26 | 23 | 34 | – | – | –
RKVNNVWVWV [RKVNNVWVWV, Arginyl-lysyl-valyl-asparaginyl-asparaginyl-valyl-tryptophyl-valyl-tryptophyl-valine] | – | – | – | 82 | 98 | –
Arg-Glu-Asn-Asn-Lys-Thr-Trp-Thr-Trp-Val-NH2 (RENNKTWTWV-NH2) | 34 | 94 | 96 | – | – | –
RKNNKTWTWV-NH2 [RKNNKTWTWV-NH2, Arginyl-lysyl-asparaginyl-asparaginyl-lysyl-threonyl-tryptophyl-threonyl-tryptophyl-valine-amide] | 14 | 30 | – | 13 | 20 | –
RKNNKTWTWV (Synthetic inhibitory peptide) [Arginyl-lysyl-asparaginyl-asparaginyl-lysyl-threonyl-tryptophyl-hreonyl-tryptophyl-valine] | 14 | – | 35 | – | – | –
Cys-Arg-Lys-Asn-Asn-Lys-Thr-Trp-Thr-Trp-Val-NH2 (CRKNNKTWTWV-NH2) | 87 | – | 105 | – | – | –
Arg-Lys-Asn-Asn-Lys-Thr-Trp-Thr-Trp-Glu-NH2 (RKNNKTWTWE-NH2) | 17 | 20 | – | – | – | –
KWKWNRTNVT-NH2 [reference compound] | 0 | 0 | 0 | – | – | –
Arg-Lys-Asn-Asn-Lys-Thr-Trp-NH2 (RKNNKTW-NH2) | 31 | 53 | 99 | – | – | –
RKVNNVWVWV-NH2 [RKVNNVWVWV-NH2, Arginyl-lysyl-valyl-asparaginyl-asparaginyl-valyl-tryptophyl-valyl-tryptophyl-valine-amide] | – | – | – | 94 | 102 | –
RKNNGTWTWV-NH2 [RKNNGTWTWV-NH2, Arginyl-lysyl-asparaginyl-asparaginyl-glycyl-threonyl-tryptophyl-threonyl-tryptophyl-valine-amide] | – | – | – | 46 | 99 | 99
Ac-Arg-Lys-Asn-Asn-Lys-Thr-Trp-Thr-Trp-Val-NH2 (Ac-RKNNKTWTWV-NH2) | 35 | 50 | – | – | – | –
Tyr-Lys-Asn-Asn-Lys-Thr-Trp-Thr-Trp-Val-NH2 (YKNNKTWTWV-NH2) | 9 | 98 | 104 | – | – | –
